Test results published in patent US20250051465A1 (published 2025).

T1: full length human LEPR on cells (human, UniProt P48357 22-1165)
T1 construct: also called HEK293/Stat3-luc/hLEPR-FL; hLEPR-FL
T1 sequence: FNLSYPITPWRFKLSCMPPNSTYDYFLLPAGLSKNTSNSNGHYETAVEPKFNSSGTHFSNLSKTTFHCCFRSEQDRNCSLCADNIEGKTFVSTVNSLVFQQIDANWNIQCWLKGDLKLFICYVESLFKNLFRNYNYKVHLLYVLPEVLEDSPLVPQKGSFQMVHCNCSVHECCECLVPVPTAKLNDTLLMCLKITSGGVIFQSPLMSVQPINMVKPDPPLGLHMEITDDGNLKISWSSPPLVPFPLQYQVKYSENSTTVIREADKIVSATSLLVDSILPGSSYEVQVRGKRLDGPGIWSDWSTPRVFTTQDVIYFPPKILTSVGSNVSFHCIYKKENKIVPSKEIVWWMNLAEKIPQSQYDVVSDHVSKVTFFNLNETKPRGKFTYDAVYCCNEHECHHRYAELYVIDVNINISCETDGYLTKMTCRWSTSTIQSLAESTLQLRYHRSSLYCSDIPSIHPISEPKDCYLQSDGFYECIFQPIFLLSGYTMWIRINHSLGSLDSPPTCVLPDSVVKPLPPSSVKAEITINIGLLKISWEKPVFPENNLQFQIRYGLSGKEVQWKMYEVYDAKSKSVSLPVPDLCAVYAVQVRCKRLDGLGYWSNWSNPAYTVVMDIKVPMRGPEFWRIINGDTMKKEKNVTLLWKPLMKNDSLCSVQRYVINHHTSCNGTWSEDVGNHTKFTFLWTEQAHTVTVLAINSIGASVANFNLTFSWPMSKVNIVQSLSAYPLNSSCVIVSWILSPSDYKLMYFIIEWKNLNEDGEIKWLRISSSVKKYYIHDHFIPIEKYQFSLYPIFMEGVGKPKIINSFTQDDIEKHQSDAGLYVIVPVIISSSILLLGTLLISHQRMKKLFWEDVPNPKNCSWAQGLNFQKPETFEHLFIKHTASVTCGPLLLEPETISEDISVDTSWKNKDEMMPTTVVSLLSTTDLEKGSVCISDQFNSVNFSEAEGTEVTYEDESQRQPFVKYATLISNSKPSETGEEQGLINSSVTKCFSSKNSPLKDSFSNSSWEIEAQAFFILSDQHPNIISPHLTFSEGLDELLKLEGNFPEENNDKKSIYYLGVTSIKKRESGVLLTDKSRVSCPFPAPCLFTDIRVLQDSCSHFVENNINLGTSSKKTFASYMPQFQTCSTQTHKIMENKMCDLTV

B1: H4H16650P2 (antibody, human IgG4, V domains shown)
VH: QVQLVESGGGVVQPGKSLRLSCVASGFTFSSDAMYWVRQAPGKGLEWVAVIYYDGNYQYYEDSVKGRFTISRDNSQNTLDLQMNSLRVDDTAVYFCARLNWDYWYLDLWGRGTLVTVSS
VL: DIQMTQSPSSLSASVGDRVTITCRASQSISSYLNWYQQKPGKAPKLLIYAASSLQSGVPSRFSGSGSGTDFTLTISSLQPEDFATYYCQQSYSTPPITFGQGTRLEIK
notes: Fully human antibody with human IgG4 Fc (H4H prefix)
B2: H4H16679P2 (antibody, human IgG4, V domains shown)
VH: QVQLVESGGGVVQPGRSLRLSCTASGFTFSSYAMYWVRQAPGKGLEWVSVIYYDGSYKYYADSVKGRFTISRDNSKNTLYLQMDSLRAEDTAVYYCASYNWNYWYFDFWGRGTLVTVSS
VL: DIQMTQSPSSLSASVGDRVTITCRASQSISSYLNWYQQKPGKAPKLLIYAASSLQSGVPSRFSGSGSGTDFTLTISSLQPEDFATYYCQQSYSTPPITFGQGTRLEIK
notes: as for B1
B3: H4H17321P2 (antibody, human IgG4, V domains shown)
VH: QVQLVESGGGVVQPGRSLRLSCEASGFSSSDNAMYWVRQAPGKGLEWVSVIYHDGSYKYYEDSVKGRFTIARDNSKNTLYLQMNSLRAEDTAVYYCARYNWNHWYFDVWGRGTLVTVSS
VL: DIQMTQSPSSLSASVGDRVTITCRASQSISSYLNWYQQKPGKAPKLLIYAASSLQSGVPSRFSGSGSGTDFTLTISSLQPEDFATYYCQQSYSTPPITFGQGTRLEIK
notes: as for B1
B4: H4H17319P2 (antibody, human IgG4, V domains shown)
VH: QVQLVESGGSVVQPGRSLRLSCAASGFTFSTYAMYWVRQTPGKGLEWVAVLYSDGSNKYYIDSVKGRFTISRDTSTNTLYLQMSSLRADDSALYYCARLNWDYWYFDLWGRGTLVTVSS
VL: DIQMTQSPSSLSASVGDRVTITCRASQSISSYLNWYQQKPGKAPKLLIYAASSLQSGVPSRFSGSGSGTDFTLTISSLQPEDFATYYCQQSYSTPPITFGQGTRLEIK
notes: as for B1

The binders below were run against T1, full length human LEPR on cells (assay: FACS, HEK293/Stat3-luc/hLEPR-FL, 70 nM Ab).
In the case of B1, the “Binding Ratio” value is reported as 42 fold over unstained.
With B2 the “Binding Ratio” value was 51 fold over unstained.
B3 was tested, and the “Binding Ratio” value was 46 fold over unstained.
In the case of B4, the “Binding Ratio” value is reported as 47 fold over unstained.
